Measured values as given in patent publication US20200247855A1 (published 2020).
Like-named read-outs stand apart in the source and are kept apart here.

Tests used:
Experiment in all cases: BLI
CXCL8_HUMAN = CXCL8_HUMAN (human, UniProt P10145 28-99)
CXCL1_HUMAN [1] = target: T1, CXCL1_HUMAN (human, UniProt P09341 35-107)
CXCL3_HUMAN [2] = target: T2, CXCL3_HUMAN (human, UniProt P19876 35-107)
CCL18_HUMAN = target: T3, CCL18_HUMAN (human, UniProt P55774 21-89)
T3 chain: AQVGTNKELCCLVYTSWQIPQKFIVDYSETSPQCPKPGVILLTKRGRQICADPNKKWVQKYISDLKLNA

CCL21_HUMAN = target: T4, CCL21_HUMAN (human, UniProt O00585 24-134)
T4 chain: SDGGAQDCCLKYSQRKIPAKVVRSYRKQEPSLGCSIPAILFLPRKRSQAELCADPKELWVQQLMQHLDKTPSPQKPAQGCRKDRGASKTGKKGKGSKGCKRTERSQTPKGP

CCL1_HUMAN = target: T5, CCL1_HUMAN (human, UniProt P22362 24-96)
T5 chain: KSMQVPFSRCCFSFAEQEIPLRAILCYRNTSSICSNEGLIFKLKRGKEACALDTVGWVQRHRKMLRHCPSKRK

CCL23_HUMAN = target: T6, CCL23_HUMAN (human, UniProt P55773 22-120)
T6 chain: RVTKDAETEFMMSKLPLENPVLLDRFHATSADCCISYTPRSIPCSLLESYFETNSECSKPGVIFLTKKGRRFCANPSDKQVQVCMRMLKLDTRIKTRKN

CCL2_HUMAN = CCL2_HUMAN (human, UniProt P13500 24-99)
CCL11_HUMAN [3] = target: T7, CCL11_HUMAN (human, UniProt P51671 24-97)
CCL16_HUMAN = target: T8, CCL16_HUMAN (human, UniProt O15467 24-120)
T8 chain: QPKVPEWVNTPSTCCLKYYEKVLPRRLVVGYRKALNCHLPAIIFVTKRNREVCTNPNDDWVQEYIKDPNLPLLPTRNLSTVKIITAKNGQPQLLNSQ

CCL3_HUMAN = target: T9, CCL3_HUMAN (human, UniProt P10147 24-92)
T9 chain: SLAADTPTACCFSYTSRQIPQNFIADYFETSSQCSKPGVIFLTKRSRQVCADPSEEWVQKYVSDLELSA

CCL14_HUMAN [4] = target: T10, CCL14_HUMAN (human, UniProt Q16627 22-93)
T10 chain: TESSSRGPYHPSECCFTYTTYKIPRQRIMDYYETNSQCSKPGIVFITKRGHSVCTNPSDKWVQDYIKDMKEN

CCL22_HUMAN = target: T11, CCL22_HUMAN (human, UniProt O00626 25-93)
T11 chain: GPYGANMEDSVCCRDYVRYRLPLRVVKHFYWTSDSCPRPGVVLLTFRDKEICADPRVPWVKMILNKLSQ

CCL24_HUMAN = target: T12, CCL24_HUMAN (human, UniProt O00175 27-104)
T12 chain: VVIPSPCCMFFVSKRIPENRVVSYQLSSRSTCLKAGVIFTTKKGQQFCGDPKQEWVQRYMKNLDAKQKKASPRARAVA

CCL15_HUMAN = target: T13, CCL15_HUMAN (human, UniProt Q16663 22-113)
T13 chain: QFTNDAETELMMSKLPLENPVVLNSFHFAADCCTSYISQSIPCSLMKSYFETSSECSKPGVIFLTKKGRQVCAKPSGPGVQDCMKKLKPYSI

CCL3L1_HUMAN = target: T14, CCL3L1_HUMAN (human, UniProt P16619 24-93)
T14 chain: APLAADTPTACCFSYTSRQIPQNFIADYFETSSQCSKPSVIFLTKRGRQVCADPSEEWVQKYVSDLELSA

CCL13_HUMAN [5] = target: T15, CCL13_HUMAN (human, UniProt Q99616 24-98)
CCL27_HUMAN = target: T16, CCL27_HUMAN (human, UniProt Q9Y4X3 25-112)
T16 chain: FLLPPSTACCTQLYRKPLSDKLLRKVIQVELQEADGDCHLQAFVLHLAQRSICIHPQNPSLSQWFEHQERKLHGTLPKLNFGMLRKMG

CCL17_HUMAN = target: T17, CCL17_HUMAN (human, UniProt Q92583 24-94)
T17 chain: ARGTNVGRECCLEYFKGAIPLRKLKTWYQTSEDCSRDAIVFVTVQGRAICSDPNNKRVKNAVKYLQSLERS

CCL7_HUMAN = CCL7_HUMAN (human, UniProt P80098 24-99)
CCL5_HUMAN = target: T18, CCL5_HUMAN (human, UniProt P13501 24-91)
T18 chain: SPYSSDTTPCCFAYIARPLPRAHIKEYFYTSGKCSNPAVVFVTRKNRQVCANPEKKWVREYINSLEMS

CCL8_HUMAN [6] = target: T19, CCL8_HUMAN (human, UniProt P80075 24-99)
T19 chain: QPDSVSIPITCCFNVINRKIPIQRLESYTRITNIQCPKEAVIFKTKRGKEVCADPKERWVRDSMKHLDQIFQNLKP

CCL4_HUMAN = target: T20, CCL4_HUMAN (human, UniProt P13236 24-92)
T20 chain: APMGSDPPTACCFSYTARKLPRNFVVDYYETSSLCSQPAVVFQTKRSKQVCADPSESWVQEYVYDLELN

CCL4L1_HUMAN = target: T21, CCL4L1_HUMAN (human, UniProt Q8NHW4 24-92)
T21 chain: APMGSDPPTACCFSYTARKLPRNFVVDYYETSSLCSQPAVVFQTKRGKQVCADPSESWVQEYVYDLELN

CXCL5 [7] = target: CXCL5
CXCL2 [8] = target: CXCL2
CCL11_HUMAN [9] = target: T7, CCL11_HUMAN; remark: listed apart in the source
CCL14_HUMAN [10] = target: T10, CCL14_HUMAN
CCL13_HUMAN [11] = target: T15, CCL13_HUMAN; remark: listed apart in the source
CCL8_HUMAN [12] = target: T19, CCL8_HUMAN
CXCL5 [13] = target: CXCL5; remark: listed apart in the source
CXCL2 [14] = target: CXCL2; remark: listed apart in the source
CXCL6 = target: CXCL6
CXCL4 = target: CXCL4
CXCL10_HUMAN = CXCL10_HUMAN (human, UniProt P02778 22-98)
CXCL11_HUMAN = target: T22, CXCL11_HUMAN (human, UniProt O14625 22-94)
T22 chain: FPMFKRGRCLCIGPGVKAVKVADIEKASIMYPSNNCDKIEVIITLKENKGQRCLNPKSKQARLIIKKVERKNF

CXCL7_HUMAN = target: T23, CXCL7_HUMAN (human, UniProt P02775 59-128)
T23 chain: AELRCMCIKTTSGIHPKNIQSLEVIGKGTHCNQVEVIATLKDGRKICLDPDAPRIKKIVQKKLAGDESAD

CXCL1_HUMAN [15] = target: T1, CXCL1_HUMAN; remark: listed apart in the source
CXCL3_HUMAN [16] = target: T2, CXCL3_HUMAN; remark: listed apart in the source

T15 sequence (Q99616 24-98): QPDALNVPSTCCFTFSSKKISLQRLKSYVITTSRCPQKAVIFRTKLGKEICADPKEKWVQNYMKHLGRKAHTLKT
T1 sequence (P09341 35-107): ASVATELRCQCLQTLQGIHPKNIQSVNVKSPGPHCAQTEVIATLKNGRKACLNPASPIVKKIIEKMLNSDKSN
T7 sequence (P51671 24-97): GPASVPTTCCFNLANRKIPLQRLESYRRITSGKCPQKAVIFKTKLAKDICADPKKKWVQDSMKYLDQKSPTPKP
T2 sequence (P19876 35-107): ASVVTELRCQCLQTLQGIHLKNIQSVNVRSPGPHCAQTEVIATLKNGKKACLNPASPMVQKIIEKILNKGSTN
Sequence of CXCL10_HUMAN (P02778 22-98): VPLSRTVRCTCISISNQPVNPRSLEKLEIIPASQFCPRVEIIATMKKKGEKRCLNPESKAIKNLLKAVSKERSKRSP
Sequence of CCL7_HUMAN (P80098 24-99): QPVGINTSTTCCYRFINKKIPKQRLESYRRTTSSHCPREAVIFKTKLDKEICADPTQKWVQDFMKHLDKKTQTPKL
Sequence of CXCL8_HUMAN (P10145 28-99): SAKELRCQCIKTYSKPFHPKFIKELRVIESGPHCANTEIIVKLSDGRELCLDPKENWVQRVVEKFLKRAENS
Sequence of CCL2_HUMAN (P13500 24-99): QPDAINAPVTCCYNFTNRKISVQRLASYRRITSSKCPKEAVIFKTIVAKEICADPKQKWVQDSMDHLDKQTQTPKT

Binder | Kd (CXCL8_HUMAN) [nM] | Kd (CXCL1_HUMAN [1]) [nM] | Kd (CXCL3_HUMAN [2]) [nM] | Kd (CCL18_HUMAN) [nM] | Kd (CCL21_HUMAN) [nM] | Kd (CCL1_HUMAN) [nM] | Kd (CCL23_HUMAN) [nM] | Kd (CCL2_HUMAN) [nM] | Kd (CCL11_HUMAN [3]) [nM] | Kd (CCL16_HUMAN) [nM] | Kd (CCL3_HUMAN) [nM] | Kd (CCL14_HUMAN [4]) [nM] | Kd (CCL22_HUMAN) [nM] | Kd (CCL24_HUMAN) [nM] | Kd (CCL15_HUMAN) [nM] | Kd (CCL3L1_HUMAN) [nM] | Kd (CCL13_HUMAN [5]) [nM] | Kd (CCL27_HUMAN) [nM] | Kd (CCL17_HUMAN) [nM] | Kd (CCL7_HUMAN) [nM] | other results
P991:G4S:P1156 (designed binder) ENGEGTTQPDYDNSTDYYNYEDFKCTCPAPHLNNTNGTVMKPIGCYYTCNVTRCTAPDTYPCYNLTEHQAKNLTTSPTTLCAVGNCDHGICVPNGTKELCFKAPNLEEGGGGSADDDNELFTVQYCGMNCTKDEGGTWTGCTGKKEGCKCYHESGKNYGLCLSTEYTDFSQYGNPSDSEIEAAKPKRSDTLSH | 3.56 | 5.08 | 89.9 | 0.143 | 18.2 | 7.66 | 5.13 | 24.8 | 1.39 | 0.636 | 2.22 | 0.835 | 2.36 | 3.18 | 127 | 2.91 | 0.176 | 42.6 | 5.8 | 0.287 | Kd (CCL5_HUMAN): 0.947 nM; Kd (CCL8_HUMAN [6]): 7.89 nM; Kd (CCL4_HUMAN): 3.54 nM; Kd (CCL4L1_HUMAN): 1.24 nM; Kd (CXCL5 [7]): 52.7 nM; Kd (CXCL2 [8]): 48.9 nM
P1156:G4S:P991 (designed binder) ADDDNELFTVQYCGMNCTKDEGGTWTGCTGKKEGCKCYHESGKNYGLCLSTEYTDFSQYGNPSDSEIEAAKPKRSDTLSHGGGGSENGEGTTQPDYDNSTDYYNYEDFKCTCPAPHLNNTNGTVMKPIGCYYTCNVTRCTAPDTYPCYNLTEHQAKNLTTSPTTLCAVGNCDHGICVPNGTKELCFKAPNLEE | 1.5 | 2.72 | 61.4 | 0.201 | 19.9 | 16.6 | 7 | 32.1 | 1.54 | 0.503 | 1.89 | 0.664 | 2.18 | 3.58 | 166 | 3.09 | 0.207 | 36.2 | 7.44 | 0.435 | Kd (CCL5_HUMAN): 0.754 nM; Kd (CCL8_HUMAN [6]): 7.45 nM; Kd (CCL4_HUMAN): 3.55 nM; Kd (CCL4L1_HUMAN): 1.28 nM; Kd (CXCL5 [7]): 22.7 nM; Kd (CXCL2 [8]): 25.2 nM
P1243_AMBAM (other) RNHTEDNSTEYYDYEEARCACPARHLNNTNGTVLKLLGCHYFCNGTLCTAPDGYPCYNLTAQQVRTLTTYPNTSCAVGVCMKGTCVKNGTMEQCFKTP |  |  |  |  |  |  |  |  |  |  |  |  |  |  |  |  |  |  |  |  | Kd (CCL11_HUMAN [9]): 36.8 nM; Kd (CCL14_HUMAN [10]): 6.43 nM; Kd (CCL13_HUMAN [11]): 1.64 nM; Kd (CCL8_HUMAN [12]): 193 nM
P1126_AMBCA (other) KPQILQRTDKSTDSEWDPQTCPETCIPSKNITCSDGCVCVKLGEEEEGTCFNMTGVDWLGSPSDD |  |  |  |  |  |  |  |  |  |  |  |  |  |  |  |  |  |  |  |  | Kd (CXCL5 [13]): 12.1 nM; Kd (CXCL2 [14]): 5.11 nM; Kd (CXCL6): 9.12 nM; Kd (CXCL4): 393 nM; Kd (CXCL10_HUMAN): 7.9 nM; Kd (CXCL11_HUMAN): 394 nM; Kd (CXCL7_HUMAN): 6.05 nM; Kd (CXCL1_HUMAN [15]): 10.5 nM; Kd (CXCL3_HUMAN [16]): 13.3 nM
P1142_AMBCA (other) KPQILQRTDHSTDSDWDPQMCPETCNPSKNISCSSECLCVTLGGGDETGTCFNMSGVDWLGHAQASDGHNDG |  |  |  |  |  |  |  |  |  |  |  |  |  |  |  |  |  |  |  |  | Kd (CXCL5 [13]): 9.81 nM; Kd (CXCL2 [14]): 2.14 nM; Kd (CXCL6): 6.27 nM; Kd (CXCL4): 381 nM; Kd (CXCL10_HUMAN): 7.46 nM; Kd (CXCL11_HUMAN): 322 nM; Kd (CXCL7_HUMAN): 1.83 nM; Kd (CXCL1_HUMAN [15]): 4.61 nM; Kd (CXCL3_HUMAN [16]): 5.65 nM
